Tests used:
[1] = target: T1, K48-linked diUb (made from UbD77 and UbK48C) (UniProt P0CG47 1-76; P0CG47 1-76, UbD77 | UbK48C, K48-linked to the other Ub (isopeptide bond between K48 and G76) | K48-linked to the other Ub (isopeptide bond between K48 and G76)); assay: NMR titration; 15N-labelled Josephin (C14A) 0.05 mM in 20 mM sodium phosphate pH 6.5, 2 mM DTT, 298 K, 600 MHz; stepwise additions of unlabelled K48- or K63-linked diUb up to 10 and 2.5 fold molar excess; chemical shift perturbation; conditions: both partners purified
T1 construct: ubiquitin, mutant UbD77; ubiquitin, mutant UbK48C; also called K48-linked diUb chains; K48-diUb; copies: 1 + 1

[2] = target: T2, K63-linked diUb (made from UbD77 and UbK63R) (UniProt P0CG47 1-76; P0CG47 1-76, UbD77 | UbK63R, K63-linked to the other Ub (isopeptide bond between K63 and G76) | K63-linked to the other Ub (isopeptide bond between K63 and G76)); assay: as above; conditions: both partners purified
T2 construct: ubiquitin, mutant UbD77; ubiquitin, mutant UbK63R; By the usual protocol G76 of UbK63R is joined to K63 of UbD77; also called K63-linked diUb chains; K63-diUb; source: recombinant Ub mutants joined with E1, Ubc13 and Uev1a by the same protocol, purified on a monoS cation exchange column; copies: 1 + 1

B1: Josephin domain of ataxin-3 (amino acids 1-182), C14A mutant, 15N labelled (domain or fragment, UniProt P54252 1-182, looked up)
chain: MESIFHEKQEGSLAAQHCLNNLLQGEYFSPVELSSIAHQLDEEERMRMAEGGVTSEDYRTFLQQPSGNMDDSGFFSIQVISNALKVWGLELILFNSPEYQRLRIDPINERSFICNYKEHWFTVRKLGKQWFNLNSLLTGPELISDTYLALFLAQLQQEGYSIFVVKGDLPDCEADQLLQMIR
modifications: 15N labelled
notes: ataxin-3, N-terminal catalytic Josephin domain, amino acids 1-182; catalytic cysteine mutated so that no cleavage could occur; The methods speak of titrations of 15N Josephin or of the C14A mutant; the results say that C14A was used; also called isolated Josephin domain; C14A Josephin mutant; source: E. coli BL21(DE3), purified as previously described [35]; grown in synthetic medium with 15NH4Cl
B1: binds [1]; binds [2].

— PMC2928749, “Understanding the Role of the Josephin Domain in the PolyUb Binding and Cleavage Properties of Ataxin-3” (PLoS ONE, 2010)
